In article PMC2674214 (PLoS ONE, 2009):

Target: rHA of clade 1 H5N1 virus A/Viet Nam/1203/04 (Influenza A virus A/Viet Nam/1203/2004 …, UniProt Q5EP31, strain)
Test: ELISA

B1: AVFluIgG03 (antibody, V domains shown)
VH: LESGGGLVQPGGSLRVSCTNSGFTFSDYAMSWVRQAPGKGLEWVSAISGNGGSSTYYADSVKGRFTISRDNSKNTMYLQMNSLRAEDTAVYYCVRDDSYDGGGQYGLHNWFDSWGQGTLVTV
VL: ELTQPPSVSGAPGQRVTISCTGSSSNIGAGYDVHWYQQLPGTAPKLLIYGNSNRPSGVPDRFSGSKSGTSASLAITGLQAEDEADYYCQSYDSSLVVFGGGTKLTVL
notes: also called rhAb AVFluIgG03; AVFluIg03; source: SF9 cells, purified on a Protein A column
  binding result: no binding
